Assay results published in article PMC9841416.

Target: NTH-RNase E wild type (Escherichia coli (K12, P21513-1 in alignment)) (UniProt P21513)
Test: competition
Settings: competitor of 7.5 nM BR15 quadruplex, 20 nM NTH, 25 mM bis-Tris propane pH 8.3, 100 mM KCl, 15 mM CaCl2, 0.1% (v/v) Triton X-100, 1 mM DTT, 20% (v/v) glycerol, 37 C 20 min, 1% agarose gel in 1x TBE

Row | Substance | IC50 [nM] | IC50 (does not compete effectively) [nM]
1 | metU-tRNA with 5' and 3' single-stranded regions | 147 | –
2 | glnW-tRNA (no flanking single-stranded regions) | – | > 2500
3 | glnW-metU segment | 229 | –
